In publication PMC12847411, “High-affinity optimization potential of the virus neutralizing antibody with twin cysteine-stabilized complementarity-determining region 3” (Frontiers in Cellular and Infection Microbiology, 2025) one finds Kd data, which are given here for 5 molecules.

B1: AZD8895-450 (antibody, V domains shown)
VH: QMQLVQSGPEVKKPGTSVKVSCKASGFTFMSSAVQWVRQARGQRLEWIGWIVIGSGNTNYAQKFQERVTITRDMSTSTAYMELSSLRSEDTAVYYCAANYCSSTICSDGMDIWGQGTMVTVSS
VL: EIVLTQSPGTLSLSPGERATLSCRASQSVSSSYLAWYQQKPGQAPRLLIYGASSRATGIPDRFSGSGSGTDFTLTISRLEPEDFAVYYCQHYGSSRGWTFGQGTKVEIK
B2: AZD8895-449 (antibody, V domains shown)
VH: B1 VH with N99P, S103L, I105N, M110F
VL: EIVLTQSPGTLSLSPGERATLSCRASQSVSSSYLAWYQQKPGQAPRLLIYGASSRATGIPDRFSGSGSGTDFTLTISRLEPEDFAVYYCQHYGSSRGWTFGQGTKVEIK
B3: AZD8895 (antibody, V domains shown)
VH: B1 VH with N99P, T104I, I105S, S107N, M110F
VL: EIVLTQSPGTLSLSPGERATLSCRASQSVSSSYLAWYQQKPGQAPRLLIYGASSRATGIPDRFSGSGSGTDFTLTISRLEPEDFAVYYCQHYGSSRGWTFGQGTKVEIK
notes: also called seed antibody AZD8895; seed mAb; source: HEK293, transient transfection, purified (HiTrap Protein A HP)
B4: AZD8895-275 (antibody, V domains shown)
VH: B1 VH with N99P, S103L, I105Y, M110F
VL: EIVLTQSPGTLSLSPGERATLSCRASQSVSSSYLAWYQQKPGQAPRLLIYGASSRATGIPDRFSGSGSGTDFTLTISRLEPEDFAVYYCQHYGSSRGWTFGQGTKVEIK
B5: AZD8895-25 (antibody, V domains shown)
VH: B1 VH with N99P, S103L, I105C, M110F
VL: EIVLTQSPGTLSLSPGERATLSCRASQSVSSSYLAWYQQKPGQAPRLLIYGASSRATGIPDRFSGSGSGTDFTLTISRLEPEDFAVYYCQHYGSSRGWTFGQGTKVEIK

Positions count from the first letter of the chain named.

The target of the assay is recombinant Fc-fused SARS-CoV-2 RBD protein (Severe acute respiratory syndrome …, UniProt P0DTC2). Nature of the assay: SPR. The note with it: both partners purified.
In general, Kd refers to the concentration at which binding is half-saturated. On to B1, for which the Kd amounted to 16.5 nM.

Regarding B2, the Kd was 13.2 nM.

For the molecule B3, the Kd amounted to 12.6 nM.

In the case of B4, the Kd came to 8.42 nM.

For B5, the dissociation constant Kd came out at 4.79 nM.
